For series [1], the target named is recombinant yeast (H3-H4)2 tetramer (yeast, UniProt P61830 1-136; P02309 1-103). Nature of the series: other fluorescence titration.
Series [2] addresses T1, Rtt109 (recombinant, purified) (yeast, UniProt Q07794 1-436).
T1 sequence (looked up): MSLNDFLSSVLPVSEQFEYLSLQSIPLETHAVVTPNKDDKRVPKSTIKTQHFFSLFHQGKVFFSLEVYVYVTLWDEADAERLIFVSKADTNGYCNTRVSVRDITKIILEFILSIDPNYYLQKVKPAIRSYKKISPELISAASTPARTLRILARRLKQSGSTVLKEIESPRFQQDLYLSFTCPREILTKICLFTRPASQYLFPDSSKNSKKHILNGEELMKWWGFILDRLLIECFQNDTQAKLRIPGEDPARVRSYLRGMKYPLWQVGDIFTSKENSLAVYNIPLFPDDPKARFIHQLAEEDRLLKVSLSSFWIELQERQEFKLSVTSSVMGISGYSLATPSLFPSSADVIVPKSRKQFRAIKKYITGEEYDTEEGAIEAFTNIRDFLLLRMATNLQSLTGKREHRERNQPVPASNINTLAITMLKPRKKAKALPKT
Nature of the series: AUC.

Series [3] deals with the molecule itself. As to the kind of experiment: AUC.

As a reminder, the Kd is the equilibrium constant for the complex coming apart. For orientation: stoichiometry N means a count of units in the complex or per binding partner.

B1: Alexa-546-labeled Vps75 (natural protein, S. cerevisiae)
chain: MMSDQENENEHAKAFLGLAKCEEEVDAIEREVELYRLNKMKPVYEKRDAYIDEIAEFWKIVLSQHVSFANYIRASDFKYIDTIDKIKVEWLALESEMYDTRDFSITFHFHGIEGDFKEQQVTKVFQIKKGKDDQEDGILTSEPVPIEWPQSYDSINPDLIKDKRSPEGKKKYRQGMKTIFGWFRWTGLKPGKEFPHGDSLASLFSEEIYPFCVKYYAEAQRDLEDEEGESGLSADGDSEDDDGSLGEVDLPLSDEEPSSKKRKV
modifications: Alexa-546 label, position not stated
With B1, the Kd in series [1] was found to be 27 nM.

B2: Vps75_(1−223) (Vps75 lacking the C-terminal acidic domain) (domain or fragment, S. cerevisiae, UniProt P53853 1-223, looked up)
chain: MMSDQENENEHAKAFLGLAKCEEEVDAIEREVELYRLNKMKPVYEKRDAYIDEIAEFWKIVLSQHVSFANYIRASDFKYIDTIDKIKVEWLALESEMYDTRDFSITFHFHGIEGDFKEQQVTKVFQIKKGKDDQEDGILTSEPVPIEWPQSYDSINPDLIKDKRSPEGKKKYRQGMKTIFGWFRWTGLKPGKEFPHGDSLASLFSEEIYPFCVKYYAEAQRDL
With B2, the binding result in series [2] is given as “binds”. In series [3], the “stoichiometry N” value was 2.

The record behind these values is article PMC2680711 (Nature structural & molecular biology, 2008).
